Patent US20170114128A1, “USE OF TGF-BETA ANTAGONISTS OF TREAT TYPE-2 DIABETES” (ALBERT EINSTEIN COLLEGE OF MEDICINE, INC., priority 2014, published 2017)

Assay: TGF-β1 concentrations in CSF and blood after third-ventricle injection
Format: in vivo, mice
Experimental: Brain TGF-β excess impairs glucose tolerance: To study the metabolic effects of brain TGF-β excess, a pharmacological approach was first used by which TGF-β was delivered into the hypothalamic third ventricle of normal C57BL/6 mice via pre-implanted cannula. To optimize the dosage, different doses of TGF-β1 (0, 0.5, 1.0, and 4.0 ng) were injected, and TGF-β1 concentrations measured in the CSF at various time points post-injection. […] Based on this condition, overnight-fasted mice were given intra-third ventricle injections of TGF-β1 in these doses, one injection at night after food was removed, and the second injection in the following morning at 4 hours prior to glucose tolerance test (GTT). […] In sum, a pharmacological induction of brain TGF-β excess can acutely cause pre-diabetic changes including glucose intolerance and insulin resistance.
Protein, mRNA and peptide analyses. Hypothalami were isolated as previously described (14). Tissue lysis, SDS/PAGE and Western blotting were performed as previously described (19). Primary antibodies in Western blots included anti-IκBα (Santa Cruz, #SC847, 1:500), anti-p-TAK1 (Cell Signaling, #4531, 1:1000), anti-p-IκBα (Cell Signaling, #2859, 1:1000), anti-RelA (Cell Signaling, #3039, 1:1000), anti-p-RelA (Cell Signaling, #4764, 1:1000), and anti-β-actin (Cell Signaling, #4967S, 1:1000), and secondary antibodies were HRP-conjugated anti-rabbit or goat antibody (Pierce, 1:2000). Quantification of Western blots was processed with Image J. Total RNA was extracted from hypothalamic tissue using TRIzol® (Invitrogen), and cDNA was synthesized using M-MLV RT System (Promega). Using SYBR® Green PCR Master Mix (Applied Biosystems), expression levels of target genes were analyzed via PCR amplification and quantification. GAPDH or TBP mRNA levels were used for normalization. […] Serum and CSF TGF-β content were measured using TGF-β ELISA kit (R&D Systems).

For “TGF-β1: transforming growth factor-β1 (Sigma), cytokine dissolved in artificial cerebrospinal fluid for third-ventricle injection”, the “CSF TGF-β1 concentration relative to basal concentration” value (60 min post-injection) was “roughly 2 fold”, the “blood TGF-β1 concentration” value (doses 0.5, 1.0, 4.0 ng in third ventricle) was “None of these doses significantly increased” and the “time of peak increase of CSF TGF-β1 concentration” value (post-injection, third ventricle, 0.5-4.0 ng, dose-dependent) was 15 min.
